In patent publication US20230250164A1 (AB2 BIO, published 2023):
Where a chain is given by its changes, count along the chain named.

Columns and labels:
IL-18/IL-18BP complex [1] = target: T1, IL-18/IL-18BP complex (human, UniProt Q14116 37-193); assay: Luminex, third screening step against first
T1 construct: In the third screening step: Luminex beads linked to IL-18BP and then complexed to IL-18; also called IL-18 previously complexed to IL-18BP; complex IL-18/IL-18BP
T1 sequence 1: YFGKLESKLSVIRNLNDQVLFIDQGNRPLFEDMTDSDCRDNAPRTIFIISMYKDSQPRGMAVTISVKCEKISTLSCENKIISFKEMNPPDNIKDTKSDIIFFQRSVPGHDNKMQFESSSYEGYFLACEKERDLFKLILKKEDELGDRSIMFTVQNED
T1 sequence 2: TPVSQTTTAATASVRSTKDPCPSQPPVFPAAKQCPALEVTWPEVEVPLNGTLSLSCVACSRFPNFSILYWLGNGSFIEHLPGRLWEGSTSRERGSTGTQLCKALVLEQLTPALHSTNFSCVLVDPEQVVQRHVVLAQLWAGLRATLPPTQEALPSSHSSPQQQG
Protocol: (§1) Mice were vaccinated aginst human interleukin-18 using a technology allowing immunization with properly folded proteins. […] Following immunization, B cells were isolated from spleen and hybridized following standard hybridoma technology. […] The screening was performed in 3 sequential and selective steps: […]

[2] = target: T2, human interleukin-18 (IL-18), recombinant (human, UniProt Q14116 37-193); assay: Luminex, IL-18 on beads, hybridoma antibody
T2 construct: Commercial recombinant human IL-18; also called human IL-18; free IL-18
T2 sequence (looked up): T1 sequence 1
Protocol: as §1

IL-18/IL-18BP complex [3] = target: T1, IL-18/IL-18BP complex; assay: Luminex, beads linked to IL-18BP then complexed to IL-18, antibody binding
Protocol: as §1

[4] = target: T2, human interleukin-18 (IL-18), …; assay: Luminex competition, antibody pre-bound to IL-18 beads, biotinylated IL-18BP as competitor is detected
[5] = target: T2, human interleukin-18 (IL-18), …; assay: free IL-18 ELISA with IL-18BP capture; 400 pg/mL IL-18 in PBS 5% BSA spiked with IL-18BP
Protocol: After that, 20 μl sample volume containing biological fluid or standard is dispensed per microplate well. Non-diluted or diluted biological fluid can be but is not restricted to serum, urine, tear, saliva, bile, sweat, exhalation or expiration, sputum, bronchoalveolar fluid, sebum, cellular, gland, mucosa or tissue secretion, biopsy, homogenized tissue. […] The plates are sealed and then incubated under gentle shaking for free IL-18 capture. […] The microplate wells are the washed extensively with the appropriate buffer and then, 100 μl buffer developing mixture is added to each well. The developing mixture contains a streptavidin-conjugated enzyme such as peroxidase or alkaline phosphatase. […] The resulting reactions are then monitored with a microplate reader at an appropriate nanometer wavelength for absorbance or fluorescence of the produced reagent.

[6] = target: T2, human interleukin-18 (IL-18), …; assay: free IL-18 ELISA with plate-bound IL-18BP as capture; 400 pg/ml IL-18 in PBS with 5% BSA spiked with soluble IL-18BP at 0 to 10000 pg/ml; soluble IL-18BP competes with the capture IL-18BP
Description: Microplates can also be dried in a stabilizing solution allowing storage at room temperature and then be reconstituted by hydration when needed for assay.

B1: Antibody 109A6 (antibody, V domains shown)
VH: EVQLQQSGAELVKPGASVKLSCTASGFKIKDTYIHWVIQRPAQGLEWIGRIDPANGNTIYGSKFQGKATLTADTSSNTAYIHLSSLTSGDSAVYYCAGYVWFAYWGQGTLVTVSA
VL: DVVMTQVPLSLPVSLGDQASISCRSSQRLVHSNGNTYLHWFLQKPGQSPKLLIYTVSNRFSGVPDRFSGSGSGTDFTLKISRVEAEDLGVYFCSQSTLVPWTFGGGTKLEIK
notes: Mouse hybridoma monoclonal antibody
- fold inhibition (binding on IL-18 complexed to IL-18BP against binding on IL-18) (IL-18/IL-18BP complex [1]): > 500 fold
- fluorescence intensity (monoclonal antibody binding on IL-18) [2]: 25800 fluorescence intensity
- fluorescence intensity (monoclonal antibody binding on IL-18 previously complexed to IL-18BP) (IL-18/IL-18BP complex [3]): 33 fluorescence intensity
- fluorescence intensity (IL-18BP binding on IL-18 previously complexed to monoclonal antibody) [4]: 913 fluorescence intensity

B2: Antibody 131B4 (antibody, V domains shown)
VH: B1 VH with L4V, V37L, I38K, A42E, L70I, H82Q, S91T, Y95F
VL: DAVLTQTPLSLPVSLGDQASISCTSSQSLVHSNGNTYLHWYLQKPGQSPKLLIYKVSDRFSGVPDRFSGSGSGTDFTLMITRVEAEDLGVYFCSQSSLVPWTFGGGTKLEVK
notes: as for B1
- fold inhibition (binding on IL-18 complexed to IL-18BP against binding on IL-18) (IL-18/IL-18BP complex [1]): > 500 fold
- fluorescence intensity (monoclonal antibody binding on IL-18) [2]: 24800 fluorescence intensity
- fluorescence intensity (monoclonal antibody binding on IL-18 previously complexed to IL-18BP) (IL-18/IL-18BP complex [3]): 41 fluorescence intensity
- fluorescence intensity (IL-18BP binding on IL-18 previously complexed to monoclonal antibody) [4]: 1660 fluorescence intensity

B3: recombinant human IL-18 Binding Protein (IL-18BP) (other)
chain: T1 sequence 2
notes: Biotinylated in the second Luminex screening step; also called human IL-18BP; hIL-18BP
- molar ratio IL-18BP/IL-18 at which free IL-18 is near background [5]: ~15 fold
- IC50 (read off the curve) [6]: ~2 ng/mL

B4: Antibody 107C6 (antibody, V domains shown)
VH: QIQLVQSGPELKKPGETVKLSCRASGYTFTNYGMNWVKQAPGKGLKWMGWINTYSGVPTYADDFKGQFAFSLETSAATAFLQINNLKDEDTATYFCAREGYSTTRSMDYWGQGTSVTVSS
VL: DIVMSQSPSSLAVSAGEKVTMSCKSSQSLLDSRTRKNYLVWYQQKPGQSPKLLIYWASTRGSGVPDRFTGSGSGTDFTLTISSVQAEDLAVYYCKQSYNLRTFGGGTKLEIK
notes: Mouse hybridoma monoclonal antibody; also called clone #107C6
- fold inhibition (binding on IL-18 complexed to IL-18BP against binding on IL-18) (IL-18/IL-18BP complex [1]): > 500 fold
- fluorescence intensity (monoclonal antibody binding on IL-18) [2]: 26200 fluorescence intensity
- fluorescence intensity (monoclonal antibody binding on IL-18 previously complexed to IL-18BP) (IL-18/IL-18BP complex [3]): 33 fluorescence intensity
- fluorescence intensity (IL-18BP binding on IL-18 previously complexed to monoclonal antibody) [4]: 1390 fluorescence intensity

B5: monoclonal anti-IL-18 antibody clone 131H1 (antibody)
chain 1: QVQLKQSGPGLVQPSQSLSITCTVSGFSLTSYGVHWVRQSPGKGLEWLGVIWSGGSTDYNAAFISRLSISKDNSKSQVFFKMNSLQADDTAIYYCARSYDYDGRGYFDYWGQGTTLTVSS
chain 2: DIQMTQSPASLSASVGETVTITCRASENVYRYLAWYQQRQGKSPQLLVYSAKTLAEGVPSRFSGSGSGTQFSLKINTLQPEDFGTYYCQHHYNTPLTFGAGTKLELK
chain 3: B4 VL with L30F, D31N, R33K, V40A, Y42F, K51E, G61K, R101W
- fold inhibition (binding on IL-18 complexed to IL-18BP against binding on IL-18) (IL-18/IL-18BP complex [1]): > 500 fold
- fluorescence intensity (monoclonal antibody binding on IL-18) [2]: 24800 fluorescence intensity
- fluorescence intensity (monoclonal antibody binding on IL-18 previously complexed to IL-18BP) (IL-18/IL-18BP complex [3]): 24 fluorescence intensity
- fluorescence intensity (IL-18BP binding on IL-18 previously complexed to monoclonal antibody) [4]: 1030 fluorescence intensity

B6: Antibody 108F8 (antibody, V domains shown)
VH: B4 VH with E10D, L11S
VL: B4 VL
notes: as for B1
- fold inhibition (binding on IL-18 complexed to IL-18BP against binding on IL-18) (IL-18/IL-18BP complex [1]): > 500 fold
- fluorescence intensity (monoclonal antibody binding on IL-18) [2]: 25100 fluorescence intensity
- fluorescence intensity (monoclonal antibody binding on IL-18 previously complexed to IL-18BP) (IL-18/IL-18BP complex [3]): 45 fluorescence intensity
- fluorescence intensity (IL-18BP binding on IL-18 previously complexed to monoclonal antibody) [4]: 1290 fluorescence intensity

B7: Antibody 132H4 (antibody, V domains shown)
VH: EVKLVESGGGLVKPGGSLKLSCAASGFTFSNYAMSWVRQNPAKRLEWVATISSGGANIYYPDSVKGRFIISRDNARNTLYLQMSSLRSEDTAMYYCARGDYFNHFWFAYWGQGTLVTVSA
VL: DVLMTQTPLSLPVSLGDQASISCRSSQSIVHSNGNTYLEWYLQKPGQSPKFLIYKVSNRFSGVPDRFSGSGSGTDFTLKINRVEAEDLGIYYCFQGSHVPWTFGGGTKLEIK
notes: as for B1
- fold inhibition (binding on IL-18 complexed to IL-18BP against binding on IL-18) (IL-18/IL-18BP complex [1]): > 500 fold
- fluorescence intensity (monoclonal antibody binding on IL-18) [2]: 23800 fluorescence intensity
- fluorescence intensity (monoclonal antibody binding on IL-18 previously complexed to IL-18BP) (IL-18/IL-18BP complex [3]): 28 fluorescence intensity
- fluorescence intensity (IL-18BP binding on IL-18 previously complexed to monoclonal antibody) [4]: 1490 fluorescence intensity
